Among the data in patent publication US20230120167A1 (AFFILOGIC, published 2023) are Kd values, retold here.

Assay [1] has as its target T1, human PD-L1 (human, UniProt Q9NZQ7 19-238, limits assumed).
T1 construct: also called PD-1 ligand 1; CD274
Kind of assay: Surface Plasmon Resonance.

Assay [2] concerns the target T2, mouse PD-L1 (mouse, UniProt Q9EP73 19-238, limits assumed).
T2 construct: also called murine PDL1
Description: Surface Plasmon Resonance.

For assay [3], the target named is T3, HSP110 (human, UniProt Q92598 1-858, limits assumed).
T3 construct: also called HSPH1; Hsp105
T3 sequence (Q92598 whole entry): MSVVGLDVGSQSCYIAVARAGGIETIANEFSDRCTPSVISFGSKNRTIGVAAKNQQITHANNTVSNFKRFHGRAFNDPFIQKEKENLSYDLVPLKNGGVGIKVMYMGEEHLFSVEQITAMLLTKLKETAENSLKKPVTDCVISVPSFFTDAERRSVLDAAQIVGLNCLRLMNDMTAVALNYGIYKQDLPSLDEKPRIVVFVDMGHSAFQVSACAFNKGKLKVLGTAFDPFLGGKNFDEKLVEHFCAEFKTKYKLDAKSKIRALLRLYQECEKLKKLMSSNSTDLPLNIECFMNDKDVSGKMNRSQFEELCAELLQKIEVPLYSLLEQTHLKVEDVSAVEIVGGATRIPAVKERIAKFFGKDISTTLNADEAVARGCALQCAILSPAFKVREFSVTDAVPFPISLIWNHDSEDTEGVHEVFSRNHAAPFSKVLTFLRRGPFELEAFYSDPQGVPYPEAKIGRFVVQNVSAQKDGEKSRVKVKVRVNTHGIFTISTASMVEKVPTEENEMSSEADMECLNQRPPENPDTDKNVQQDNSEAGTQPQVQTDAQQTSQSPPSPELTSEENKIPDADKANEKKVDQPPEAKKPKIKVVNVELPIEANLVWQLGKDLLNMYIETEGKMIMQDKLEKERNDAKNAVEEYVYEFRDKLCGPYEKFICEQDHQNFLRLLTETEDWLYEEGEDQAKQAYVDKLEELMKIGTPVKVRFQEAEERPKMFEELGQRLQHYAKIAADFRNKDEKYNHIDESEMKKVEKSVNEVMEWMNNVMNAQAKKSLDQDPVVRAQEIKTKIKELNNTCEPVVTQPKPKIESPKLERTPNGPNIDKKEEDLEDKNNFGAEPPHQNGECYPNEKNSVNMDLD

T1 sequence (Q9NZQ7 19-238 limits assumed): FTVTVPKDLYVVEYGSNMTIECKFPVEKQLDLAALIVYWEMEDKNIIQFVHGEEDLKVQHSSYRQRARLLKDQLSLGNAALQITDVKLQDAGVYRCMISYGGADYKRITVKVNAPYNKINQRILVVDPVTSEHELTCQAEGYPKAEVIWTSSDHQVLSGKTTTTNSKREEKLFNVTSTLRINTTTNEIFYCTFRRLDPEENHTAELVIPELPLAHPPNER
T2 sequence (Q9EP73 19-238 limits assumed): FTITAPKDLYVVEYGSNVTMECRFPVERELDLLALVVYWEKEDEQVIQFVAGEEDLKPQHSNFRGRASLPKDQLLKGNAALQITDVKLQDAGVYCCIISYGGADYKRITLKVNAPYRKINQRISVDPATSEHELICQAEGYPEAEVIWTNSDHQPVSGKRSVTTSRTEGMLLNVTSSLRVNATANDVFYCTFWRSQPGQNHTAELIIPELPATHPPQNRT

B1: B11 (Sac7d variant binding to PD-L1, SEQ ID NO: 21) (designed binder)
chain: MVKVKFVIGGEEKEVDTSKIKTVRRIGKYVLFKYDDNGKTGMGLVSEKDAPKELLDMLARAEREKK
notes: also called NF2; NF-B11
B1: the Kd – broadly, a measure of binding affinity in units of concentration – in assay [1] was ~15 nM; in assay [2], ~3.2 nM.

B2: A-C2 (Sac7d variant binding to HSP110, SEQ ID NO: 27) (designed binder)
chain: MVKVKFMWRGEEKEVDTSKIWDVWRSGKTVYFHYDDNGKMGQGKVHEKDAPKELLDMLARAEREKK
notes: also called NF1; anti-HSP110 variant
Regarding B2, the dissociation constant (Kd) in assay [3] is < 1 nM.
